Results: patent US20200132689A1 (ARIZONA BOARD OF REGENTS ON BEHALF OF THE UNIVERSITY OF …, published 2020)
Numbering of substitutions follows the chain as printed. Values belong to the binder of their own block, whether it stands above or below them.

Target: T1, nicotinamide phosphoribosyltransferase (NAMPT) (Homo sapiens (Human), UniProt P43490 1-491)
T1 construct: also called PBEF; visfatin
Test: method not stated

T1 sequence (P43490 whole entry): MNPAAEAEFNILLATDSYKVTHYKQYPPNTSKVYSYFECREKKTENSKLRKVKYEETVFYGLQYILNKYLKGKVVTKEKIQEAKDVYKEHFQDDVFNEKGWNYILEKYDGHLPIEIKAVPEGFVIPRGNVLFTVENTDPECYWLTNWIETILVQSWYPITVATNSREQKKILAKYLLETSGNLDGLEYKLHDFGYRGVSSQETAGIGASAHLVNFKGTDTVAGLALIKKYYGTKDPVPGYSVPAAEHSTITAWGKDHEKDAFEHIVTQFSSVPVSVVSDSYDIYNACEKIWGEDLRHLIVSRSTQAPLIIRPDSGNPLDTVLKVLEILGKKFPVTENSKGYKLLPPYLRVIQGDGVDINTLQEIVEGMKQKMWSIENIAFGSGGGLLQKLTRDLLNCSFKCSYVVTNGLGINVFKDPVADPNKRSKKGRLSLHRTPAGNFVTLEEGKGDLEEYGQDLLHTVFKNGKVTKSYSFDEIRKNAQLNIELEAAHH

Kd: 6 nM
B1: murine anti-NAMPT mAb AL303 (antibody, V domains shown)
VH: QVQLQQPGADLVKPGASVKLSCKASGYTFTSYWMQWVKQRPGQGLEWIGEIDPSNSYTNYNQKFRGKATLTVDPSSSTAYMQLSSLTSEDSAVYYCARGGYWGQGTTLTVSS
VL: DIVMTQAAFSNPVTLGTSASISCRSSKSLLHSNGITYLYWYLQKPGQSPQLLIYQMSNLASGVPDRFSSSGSGTDFTLRISRVEAEDVGVYYCVQNLELPYTFGGGTKLEIK

Kd: 9 nM
B2: murine anti-NAMPT mAb AL310 (antibody, V domains shown)
VH: QVQLQQSGAESVMPGASVKLSCKASGYTFTSYWMHWVKQRPGQGLEWIGEIDPSDSYTNYNQKFKGKSTLTVDKSSSTAYMQLSSLTSEDSAVYYCAKSNYVVPWYFDVWGTGTTVTVSS
VL: B1 VL with V94A, Y101W
